According to US5847088A, “Antibodies specific for platelet-activating factor acetylhydrolase” (ICOS Corporation, priority 1995, dated 1998):

B1: Wild type: wild type human PAF-AH expressed in E. coli, control of mutation series (protein, UniProt Q13093 22-441, looked up)
Platelet-activating factor …: FDWQYINPVAHMKSSAWVNKIQVLMAAASFGQTKIPRGNGPYSVGCTDLMFDHTNKGTFLRLYYPSQDNDRLDTLWIPNKEYFWGLSKFLGTHWLMGNILRLLFGSMTTPANWNSPLRPGEKYPLVVFSHGLGAFRTLYSAIGIDLASHGFIVAAVEHRDRSASATYYFKDQSAAEIGDKSWLYLRTLKQEEETHIRNEQVRQRAKECSQALSLILDIDHGKPVKNALDLKFDMEQLKDSIDREKIAVIGHSFGGATVIQTLSEDQRFRCGIALDAWMFPLGDEVYSRIPQPLFFINSEYFQYPANIIKMKKCYSPDKERKMITIRGSVHQNFADFTFATGKIIGHMLKLKGDIDSNVAIDLSNKASLAFLQKHLGLHKDFDQWDCLIEGDDENLIPGTNINTTNQHIMLQNSSGIEKYN
B2: S108A: PAF-AH analog with single amino acid substitution, expressed in E. coli (protein)
chain: MVPPKLHVLFCLCGCLAVVYPFDWQYINPVAHMKSSAWVNKIQVLMAAASFGQTKIPRGNGPYSVGCTDLMFDHTNKGTFLRLYYPSQDNDRLDTLWIPNKEYFWGLAKFLGTHWLMGNILRLLFGSMTTPANWNSPLRPGEKYPLVVFSHGLGAFRTLYSAIGIDLASHGFIVAAVEHRDRSASATYYFKDQSAAEIGDKSWLYLRTLKQEEETHIRNEQVRQRAKECSQALSLILDIDHGKPVKNALDLKFDMEQLKDSIDREKIAVIGHSFGGATVIQTLSEDQRFRCGIALDAWMFPLGDEVYSRIPQPLFFINSEYFQYPANIIKMKKCYSPDKERKMITIRGSVHQNFADFTFATGKIIGHMLKLKGDIDSNVAIDLSNKASLAFLQKHLGLHKDFDQWDCLIEGDDENLIPGTNINTTNQHIMLQNSSGIEKYN
B3: S273A: PAF-AH analog, Ser273 changed to alanine (protein)
chain: MVPPKLHVLFCLCGCLAVVYPFDWQYINPVAHMKSSAWVNKIQVLMAAASFGQTKIPRGNGPYSVGCTDLMFDHTNKGTFLRLYYPSQDNDRLDTLWIPNKEYFWGLSKFLGTHWLMGNILRLLFGSMTTPANWNSPLRPGEKYPLVVFSHGLGAFRTLYSAIGIDLASHGFIVAAVEHRDRSASATYYFKDQSAAEIGDKSWLYLRTLKQEEETHIRNEQVRQRAKECSQALSLILDIDHGKPVKNALDLKFDMEQLKDSIDREKIAVIGHAFGGATVIQTLSEDQRFRCGIALDAWMFPLGDEVYSRIPQPLFFINSEYFQYPANIIKMKKCYSPDKERKMITIRGSVHQNFADFTFATGKIIGHMLKLKGDIDSNVAIDLSNKASLAFLQKHLGLHKDFDQWDCLIEGDDENLIPGTNINTTNQHIMLQNSSGIEKYN
B4: D286A: PAF-AH analog with single amino acid substitution (protein)
chain: MVPPKLHVLFCLCGCLAVVYPFDWQYINPVAHMKSSAWVNKIQVLMAAASFGQTKIPRGNGPYSVGCTDLMFDHTNKGTFLRLYYPSQDNDRLDTLWIPNKEYFWGLSKFLGTHWLMGNILRLLFGSMTTPANWNSPLRPGEKYPLVVFSHGLGAFRTLYSAIGIDLASHGFIVAAVEHRDRSASATYYFKDQSAAEIGDKSWLYLRTLKQEEETHIRNEQVRQRAKECSQALSLILDIDHGKPVKNALDLKFDMEQLKDSIDREKIAVIGHSFGGATVIQTLSEAQRFRCGIALDAWMFPLGDEVYSRIPQPLFFINSEYFQYPANIIKMKKCYSPDKERKMITIRGSVHQNFADFTFATGKIIGHMLKLKGDIDSNVAIDLSNKASLAFLQKHLGLHKDFDQWDCLIEGDDENLIPGTNINTTNQHIMLQNSSGIEKYN
B5: D286N: PAF-AH analog with single amino acid substitution (protein)
chain: MVPPKLHVLFCLCGCLAVVYPFDWQYINPVAHMKSSAWVNKIQVLMAAASFGQTKIPRGNGPYSVGCTDLMFDHTNKGTFLRLYYPSQDNDRLDTLWIPNKEYFWGLSKFLGTHWLMGNILRLLFGSMTTPANWNSPLRPGEKYPLVVFSHGLGAFRTLYSAIGIDLASHGFIVAAVEHRDRSASATYYFKDQSAAEIGDKSWLYLRTLKQEEETHIRNEQVRQRAKECSQALSLILDIDHGKPVKNALDLKFDMEQLKDSIDREKIAVIGHSFGGATVIQTLSENQRFRCGIALDAWMFPLGDEVYSRIPQPLFFINSEYFQYPANIIKMKKCYSPDKERKMITIRGSVHQNFADFTFATGKIIGHMLKLKGDIDSNVAIDLSNKASLAFLQKHLGLHKDFDQWDCLIEGDDENLIPGTNINTTNQHIMLQNSSGIEKYN
B6: D296A: PAF-AH analog, Asp296 changed to alanine (protein)
chain: MVPPKLHVLFCLCGCLAVVYPFDWQYINPVAHMKSSAWVNKIQVLMAAASFGQTKIPRGNGPYSVGCTDLMFDHTNKGTFLRLYYPSQDNDRLDTLWIPNKEYFWGLSKFLGTHWLMGNILRLLFGSMTTPANWNSPLRPGEKYPLVVFSHGLGAFRTLYSAIGIDLASHGFIVAAVEHRDRSASATYYFKDQSAAEIGDKSWLYLRTLKQEEETHIRNEQVRQRAKECSQALSLILDIDHGKPVKNALDLKFDMEQLKDSIDREKIAVIGHSFGGATVIQTLSEDQRFRCGIALAAWMFPLGDEVYSRIPQPLFFINSEYFQYPANIIKMKKCYSPDKERKMITIRGSVHQNFADFTFATGKIIGHMLKLKGDIDSNVAIDLSNKASLAFLQKHLGLHKDFDQWDCLIEGDDENLIPGTNINTTNQHIMLQNSSGIEKYN
B7: D304A: PAF-AH analog with single amino acid substitution (protein)
chain: MVPPKLHVLFCLCGCLAVVYPFDWQYINPVAHMKSSAWVNKIQVLMAAASFGQTKIPRGNGPYSVGCTDLMFDHTNKGTFLRLYYPSQDNDRLDTLWIPNKEYFWGLSKFLGTHWLMGNILRLLFGSMTTPANWNSPLRPGEKYPLVVFSHGLGAFRTLYSAIGIDLASHGFIVAAVEHRDRSASATYYFKDQSAAEIGDKSWLYLRTLKQEEETHIRNEQVRQRAKECSQALSLILDIDHGKPVKNALDLKFDMEQLKDSIDREKIAVIGHSFGGATVIQTLSEDQRFRCGIALDAWMFPLGAEVYSRIPQPLFFINSEYFQYPANIIKMKKCYSPDKERKMITIRGSVHQNFADFTFATGKIIGHMLKLKGDIDSNVAIDLSNKASLAFLQKHLGLHKDFDQWDCLIEGDDENLIPGTNINTTNQHIMLQNSSGIEKYN
B8: D338A: PAF-AH analog with single amino acid substitution (protein)
chain: MVPPKLHVLFCLCGCLAVVYPFDWQYINPVAHMKSSAWVNKIQVLMAAASFGQTKIPRGNGPYSVGCTDLMFDHTNKGTFLRLYYPSQDNDRLDTLWIPNKEYFWGLSKFLGTHWLMGNILRLLFGSMTTPANWNSPLRPGEKYPLVVFSHGLGAFRTLYSAIGIDLASHGFIVAAVEHRDRSASATYYFKDQSAAEIGDKSWLYLRTLKQEEETHIRNEQVRQRAKECSQALSLILDIDHGKPVKNALDLKFDMEQLKDSIDREKIAVIGHSFGGATVIQTLSEDQRFRCGIALDAWMFPLGDEVYSRIPQPLFFINSEYFQYPANIIKMKKCYSPAKERKMITIRGSVHQNFADFTFATGKIIGHMLKLKGDIDSNVAIDLSNKASLAFLQKHLGLHKDFDQWDCLIEGDDENLIPGTNINTTNQHIMLQNSSGIEKYN
B9: H351A: PAF-AH analog, His351 changed to alanine (protein)
chain: MVPPKLHVLFCLCGCLAVVYPFDWQYINPVAHMKSSAWVNKIQVLMAAASFGQTKIPRGNGPYSVGCTDLMFDHTNKGTFLRLYYPSQDNDRLDTLWIPNKEYFWGLSKFLGTHWLMGNILRLLFGSMTTPANWNSPLRPGEKYPLVVFSHGLGAFRTLYSAIGIDLASHGFIVAAVEHRDRSASATYYFKDQSAAEIGDKSWLYLRTLKQEEETHIRNEQVRQRAKECSQALSLILDIDHGKPVKNALDLKFDMEQLKDSIDREKIAVIGHSFGGATVIQTLSEDQRFRCGIALDAWMFPLGDEVYSRIPQPLFFINSEYFQYPANIIKMKKCYSPDKERKMITIRGSVAQNFADFTFATGKIIGHMLKLKGDIDSNVAIDLSNKASLAFLQKHLGLHKDFDQWDCLIEGDDENLIPGTNINTTNQHIMLQNSSGIEKYN
B10: C67S: PAF-AH analog, cysteine mutated to serine (protein)
chain: MVPPKLHVLFCLCGCLAVVYPFDWQYINPVAHMKSSAWVNKIQVLMAAASFGQTKIPRGNGPYSVGSTDLMFDHTNKGTFLRLYYPSQDNDRLDTLWIPNKEYFWGLSKFLGTHWLMGNILRLLFGSMTTPANWNSPLRPGEKYPLVVFSHGLGAFRTLYSAIGIDLASHGFIVAAVEHRDRSASATYYFKDQSAAEIGDKSWLYLRTLKQEEETHIRNEQVRQRAKECSQALSLILDIDHGKPVKNALDLKFDMEQLKDSIDREKIAVIGHSFGGATVIQTLSEDQRFRCGIALDAWMFPLGDEVYSRIPQPLFFINSEYFQYPANIIKMKKCYSPDKERKMITIRGSVHQNFADFTFATGKIIGHMLKLKGDIDSNVAIDLSNKASLAFLQKHLGLHKDFDQWDCLIEGDDENLIPGTNINTTNQHIMLQNSSGIEKYN
B11: C229S: PAF-AH analog, Cys229 mutated to serine (protein)
chain: MVPPKLHVLFCLCGCLAVVYPFDWQYINPVAHMKSSAWVNKIQVLMAAASFGQTKIPRGNGPYSVGCTDLMFDHTNKGTFLRLYYPSQDNDRLDTLWIPNKEYFWGLSKFLGTHWLMGNILRLLFGSMTTPANWNSPLRPGEKYPLVVFSHGLGAFRTLYSAIGIDLASHGFIVAAVEHRDRSASATYYFKDQSAAEIGDKSWLYLRTLKQEEETHIRNEQVRQRAKESSQALSLILDIDHGKPVKNALDLKFDMEQLKDSIDREKIAVIGHSFGGATVIQTLSEDQRFRCGIALDAWMFPLGDEVYSRIPQPLFFINSEYFQYPANIIKMKKCYSPDKERKMITIRGSVHQNFADFTFATGKIIGHMLKLKGDIDSNVAIDLSNKASLAFLQKHLGLHKDFDQWDCLIEGDDENLIPGTNINTTNQHIMLQNSSGIEKYN

Test: PAF-AH activity of PAF-AH products expressed in E. coli (hydrolysis of 3H-acetate from [acetyl-3H] PAF)
Format: biochemical
Details: amino acid substitution products expressed in E. coli

Molecule	PAF-AH activity
B1	++++ (wild type PAF-AH activity of about 40-60 U/ml/OD600)
B2	++++ (wild type PAF-AH activity of about 40-60 U/ml/OD600)
B3	- (<1 U/ml/OD600 activity)
B4	- (<1 U/ml/OD600 activity)
B5	++ (about 10-20 U/ml/OD600 activity)
B6	- (<1 U/ml/OD600 activity)
B7	++++ (wild type PAF-AH activity of about 40-60 U/ml/OD600)
B8	++++ (wild type PAF-AH activity of about 40-60 U/ml/OD600)
B9	- (<1 U/ml/OD600 activity)
B10	+++ (about 20-40 U/ml/OD600 activity)
B11	+ (1-10 U/ml/OD600 activity)
